Test results from the Human Domainome abundance scans (Beltran et al. 2025).
± gives the uncertainty stated by the source.

B1: Lysine-specific demethylase 2B, residues 656 to 722; numbered along this chain, Q8NHM5 (parent)
chain: LPHTAVCLVCGEAGKEDTVEEEEGKFNLMLMECSICNEIIHPGCLKIKESEGVVNDELPNCWECPKC

Variants of: B1
Experiment: abundance fitness (aPCA) (normalised: wild type 0, dead -1); higher = more abundant; growth selection in yeast, the domain comes from the species named
Conditions: Homo sapiens

| Variant | abundance fitness |
| --- | --- |
| LPHTAVCLVCGEAGKEATVEEEEGKFNLMLMECSICNEIIHPGCLKIKESEGVVNDELPNCWECPKC [D17A] | -0.173 ± 0.092 |
| LPHTAVCLVCGEAGKEQTVEEEEGKFNLMLMECSICNEIIHPGCLKIKESEGVVNDELPNCWECPKC [D17Q] | -0.091 ± 0.12 |
| LPHTAVCSVCGEAGKEDTVEEEEGKFNLMLMECSICNEIIHPGCLKIKESEGVVNDELPNCWECPKC [L8S] | -0.34 ± 0.17 |
| LPHTAVCLVCGEAGKEDTVEENEGKFNLMLMECSICNEIIHPGCLKIKESEGVVNDELPNCWECPKC [E22N] | -0.162 ± 0.29 |
| LPHTAVCLVCGEAGKEDTVEEHEGKFNLMLMECSICNEIIHPGCLKIKESEGVVNDELPNCWECPKC [E22H] | -0.099 ± 0.12 |
| LPHTAVCLVCGEAGKEDTVEEVEGKFNLMLMECSICNEIIHPGCLKIKESEGVVNDELPNCWECPKC [E22V] | -0.049 ± 0.082 |
| LPHTAVCLVCGEAGKEDTVEEEEGKFNLMLMECSICSEIIHPGCLKIKESEGVVNDELPNCWECPKC [N37S] | 0.057 ± 0.096 |
| LPHTAVCLVCGEAGKEDTVEEEEGKFNLMLMECSRCNEIIHPGCLKIKESEGVVNDELPNCWECPKC [I35R] | -0.022 ± 0.08 |
| LPHTAVCLVCGEAGKEDTVEEEEGKFNLMLMECSICNEIIHPGCLKIKESEGVVNDELPKCWECPKC [N60K] | -0.176 ± 0.12 |
| LPHTAVCLVCGEAGKEDTVEEEEGKFNLMLMECSICNEIIHGGCLKIKESEGVVNDELPNCWECPKC [P42G] | -0.302 ± 0.076 |
| LPHTAVCLVCGEAGKEDTVEEEEGKFNLMLMECSICNEIIHKGCLKIKESEGVVNDELPNCWECPKC [P42K] | -0.285 ± 0.15 |
| LPHTAVCLGCGEAGKEDTVEEEEGKFNLMLMECSICNEIIHPGCLKIKESEGVVNDELPNCWECPKC [V9G] | -0.273 ± 0.1 |
| LPHTAVCLVCGEAGKEDTVEEEEGKFNLMLMECSICNEIIHPGCLKIKESEKVVNDELPNCWECPKC [G52K] | -0.164 ± 0.093 |
| LPHTAVCLVCGEAGKEDWVEEEEGKFNLMLMECSICNEIIHPGCLKIKESEGVVNDELPNCWECPKC [T18W] | -0.331 ± 0.12 |
| LPHTAVCLVCGEAGKEDQVEEEEGKFNLMLMECSICNEIIHPGCLKIKESEGVVNDELPNCWECPKC [T18Q] | -0.062 ± 0.095 |
| LPHTAVCLVCGEAGKEDRVEEEEGKFNLMLMECSICNEIIHPGCLKIKESEGVVNDELPNCWECPKC [T18R] | -0.188 ± 0.081 |
| LPHTAVCLVCGEAGKEDKVEEEEGKFNLMLMECSICNEIIHPGCLKIKESEGVVNDELPNCWECPKC [T18K] | -0.131 ± 0.15 |
| LPHTAVCLVCGEAGKEDTVEEEEGKFNLPLMECSICNEIIHPGCLKIKESEGVVNDELPNCWECPKC [M29P] | -0.267 ± 0.12 |
| LPHTAVCLVCGEAGKEDTVEEEEGKFNLMPMECSICNEIIHPGCLKIKESEGVVNDELPNCWECPKC [L30P] | -0.435 ± 0.14 |
| LPHTAVCLVCGEAGKEDTVEEEEGKFNLMNMECSICNEIIHPGCLKIKESEGVVNDELPNCWECPKC [L30N] | -0.152 ± 0.16 |

| Variant | abundance fitness |
| --- | --- |
| LPHTAVCLVCGEAGKEDTVEEEEGKFNLMRMECSICNEIIHPGCLKIKESEGVVNDELPNCWECPKC [L30R] | -0.196 ± 0.062 |
| LPHTAVCLVCGEAGKEDTVEEEEGKFNLMHMECSICNEIIHPGCLKIKESEGVVNDELPNCWECPKC [L30H] | -0.603 ± 0.24 |
| LPHTAVCLVCGEAGKEDTVEEEEGKFELMLMECSICNEIIHPGCLKIKESEGVVNDELPNCWECPKC [N27E] | -0.044 ± 0.12 |
| LPHTAVCLVCGEAGKEDTVEEEEGKFNLMLMECSICNEICHPGCLKIKESEGVVNDELPNCWECPKC [I40C] | -0.06 ± 0.16 |
| LPHTAVCLVCGEAGKEDTVEEEEGKFNLMLMECSICNEIKHPGCLKIKESEGVVNDELPNCWECPKC [I40K] | -0.368 ± 0.12 |
| LPHTAVCLVCGEAGKEDTVEEEEGKFNLMLMECSICNEIIHPGCLKIKEEEGVVNDELPNCWECPKC [S50E] | 0.034 ± 0.13 |
| LPHTAVCLVCGEAGKEDTVEEEEGKFNLMLMECSICNEIIHPGCLKIKASEGVVNDELPNCWECPKC [E49A] | 0.104 ± 0.082 |
| LPHTAVCLVCGEAGKEDTVEEEEGKFNLMLMECSICNEIIHPGCLKIKCSEGVVNDELPNCWECPKC [E49C] | -0.039 ± 0.11 |
| LPHTAVCLVCGEAGKEDTVEEEEGKFNLMLMECSICNEIIHPGRLKIKESEGVVNDELPNCWECPKC [C44R] | -0.709 ± 0.11 |
| LPHTAVCLVCGEAGKEDTVEEEEGKFNLMLMECSICNEIIHPGCLKIKESEGVVNDELANCWECPKC [P59A] | -0.117 ± 0.1 |
| LPHTAVCLVCGEAGKEDTVEEEEGKFNLMLMECSICNEIIHPGCLKIKESEGVVNDELFNCWECPKC [P59F] | -0.261 ± 0.16 |
| LPHTAVCLVCGEAGKEDTVEEEEGKFNLMLMECSICNEIIHPGCLKIKESEGVVNDFLPNCWECPKC [E57F] | -0.107 ± 0.14 |
| LPHTAVCLVCGEAGKEDTVEEEEGKFNLMLMECSICNEIIHPGCLKIKESEGVVNDELPNCWEYPKC [C64Y] | -0.804 ± 0.27 |
| LPHTAVCLVCGEAGKEDTVEEEEGKFNLMLMECSICNEIIHPGCLKIKESEGVVNDELPNCWEDPKC [C64D] | -0.85 ± 0.21 |
| LPHTAVCLVCGEAGKEDTVEEEEGKFNLMLMECSICNEIIHPGCLKIKESEGVVNDELPNCWERPKC [C64R] | -0.888 ± 0.093 |
| LPHTAVCLVCGEAGKEDTVEEEEGKFNLMLMECSICNEIIHPGCLKIKESEGVVNDELPNCWEAPKC [C64A] | -1.05 ± 0.21 |
| LPHTAVCLVCGEAGKEDTVEEEEGKFNLMLMECSICNEIIHPGCLKWKESEGVVNDELPNCWECPKC [I47W] | -0.09 ± 0.083 |
| LFHTAVCLVCGEAGKEDTVEEEEGKFNLMLMECSICNEIIHPGCLKIKESEGVVNDELPNCWECPKC [P2F] | 0.359 ± 0.31 |
| LPHTAVCLVCGEAGKEDTVEEEEGKFNLMLMECSICNEIIHPDCLKIKESEGVVNDELPNCWECPKC [G43D] | -0.064 ± 0.2 |
| LPHTAVCLVCGEAGKEDTVEEEEGKFNLMLMECSICNEIIHPACLKIKESEGVVNDELPNCWECPKC [G43A] | 0.085 ± 0.1 |
